# Residue numbers refer to the chain shown, from its start.
# B1: VHH V (VHH)
# VHH: QVQLVETGGGLVQPGGSLRLSCAASGFTFSSYAMGWARQVPGKGLEWVSYIYSDGSTEYQDSVKGRFTISRDNAKSTVYLQMNSLKPEDTAVYYCATEGSLGGWGRDFGSWGQGTQVTVSS
# notes: also called nanobody V; source: E. coli WK6, periplasmic extract, purified (Ni-NTA, desalting or gel filtration)
# B2: VHH U (VHH)
# VHH: QVQLVESGGGLVQPGGSLRLSCAASGFTLDYYAIGWFRQAPGKEREGVSCISSSGGSTHFADSVKGRFTISRDNAKNTVYLQMNSLIPEDTAVYYCAAQSGSYYWCGSDWHEYEYWGQGTQVTVSS
# notes: also called nanobody U; source: E. coli WK6, periplasmic extract, purified (Ni-NTA, desalting or gel filtration)
# B3: VHH W (VHH)
# VHH: B2 VHH with G56D, F60Y, A61V, I87K, E114D, W116R
# notes: also called nanobody W; source: E. coli WK6, periplasmic extract, purified (Ni-NTA, desalting or gel filtration)
# Target: SARS-CoV-2 spike receptor binding domain (RBD), residues 319 to 541 (SARS-CoV-2, UniProt P0DTC2, biotinylated for SPR; DyLight 488 (NHS ester) for the ACE2-RBD binding assay; no label told for ELISA and crystals)
# Experiment: SPR
# Details: both partners purified
row,Binder,Kd [nM]
1,B1,9
2,B2,21
3,B3,22

# Source: PMC7932109 (Science (New York, N.y.), 2021)
